Assay in all cases: SPR, steady state
Assay [1] has as its target human IL-2Rβ (human) (UniProt P14784).
Assay [2] shares this target. The source holds these as a separate data set.
Assay [3] deals with human IL-15Rα (human) (UniProt Q13261).

Where two headings read alike, the source gives them in different places. A value given as a limit tells only on which side of the number the result lay.

Sequence of human IL-2Rβ (human) (P14784 27-240 limits assumed): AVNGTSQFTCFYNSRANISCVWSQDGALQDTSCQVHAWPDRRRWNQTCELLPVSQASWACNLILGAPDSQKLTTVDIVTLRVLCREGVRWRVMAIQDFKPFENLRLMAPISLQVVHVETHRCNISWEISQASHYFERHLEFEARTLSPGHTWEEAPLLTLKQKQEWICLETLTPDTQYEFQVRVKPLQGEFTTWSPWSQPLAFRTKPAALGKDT
Sequence of human IL-15Rα (human) (Q13261 31-205 limits assumed): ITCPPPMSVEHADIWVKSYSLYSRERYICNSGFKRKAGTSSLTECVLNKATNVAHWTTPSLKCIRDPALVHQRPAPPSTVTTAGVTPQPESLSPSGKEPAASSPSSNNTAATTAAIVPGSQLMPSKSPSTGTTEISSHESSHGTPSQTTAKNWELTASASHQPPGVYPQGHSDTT

In the case of “IL-15Rasu-IL-15 (non-fusion, wild-type) (from UniProt Q13261 31-95)”, the values for the Kd in assay [1] and in assay [2] were 54.4 nM and 69.6 nM, respectively.

As for hIL-15 V49R/E64 N/S (ligand), the results for the Kd in assay [3] and in assay [1] were 130 nM and over 500 nM, respectively.

The record behind these values is patent US20210324028A1.
